Source: US20230321241A1, “CANCER PEPTIDE VACCINE AND METHOD OF PREPARING THE SAME” (BrightPath Biotherapeutics Co., Ltd., priority 2020, published 2023)
Where a SMILES comes first, the peptide text is derived from it. Where no end group is shown, it is not given here.

Legend:
Type in all cases: physicochemical
[1] = Example 1: peptide cocktail preparation standing at room temperature for 6 hours; conditions: for HPLC analysis: peptide concentration: in peptide cocktail preparation of Example 1 (with GM-CSF); for HPLC analysis: % vs T0: in peptide cocktail preparation of Example 1, T = 6 hours
Method: Using the lyophilized peptide preparations produced in Preparation Example 1, a peptide cocktail preparation to be administered was prepared as follows. First, 1 mL of purified water was added to each lyophilized peptide preparation, and the lyophilized product in the vial was dissolved to prepare a peptide solution. All the peptide solutions were collected from the respective vials and transferred to a different vial to provide a peptide cocktail preparation. Also, a GM-CSF lyophilized preparation (product name: Lukine ([…]), Sanofi) was dissolved in 1 mL of purified water and 0.6 mL of the solution thus obtained was added as an adjuvant to 1.4 mL of the peptide cocktail preparation to provide a peptide cocktail preparation to be administered. Then, the peptide cocktail preparation thus obtained was allowed to stand at room temperature for 6 hours, and evaluated for changes in peptide concentration, pH (25° C.), and osmotic pressure compared with those before standing.

[2] = Test Example 2: solubility of SEQ ID NO: 1 in glycine-HCl buffers; conditions: for result (solubility): 270 mM trehalose, 24 hours
Method: The solubility of the peptide drug substance of SEQ ID NO: 1 (purity 95 w/w % or more, PPL) was examined as described below. First, 10 to 500 mM glycine-HCl buffers containing 270 mM trehalose from pH 2.5 to 3.5 were prepared, and the peptide drug substance was added to 2 mL of each buffer so that the peptide concentration was 10 to 25 mg/mL.

[3] = Test Example 1: examination of peptide solubility in citrate/phosphate buffers; conditions: for result (whether peptide drug substance was dissolved): room temperature 24 hours
Method: The solubility of a peptide drug substance (purity 95 w/w % or more, PPL) was examined for the peptides Asn-Val-Leu-His-Phe-Phe-Asn-Ala-Pro-Leu (SEQ ID NO: 1), Ala-Ser-Leu-Asp-Ser-Asp-Pro-Trp-Val (SEQ ID NO: 2), Lys-Leu-Lys-His-Tyr-Gly-Pro-Gly-Trp-Val (SEQ ID NO: 3), and Leu-Leu-Gln-Ala-Glu-Ala-Pro-Arg-Leu (SEQ ID NO: 4), respectively. First, 10 mM citrate buffers (Citrate) or phosphate buffers (Phosphate) containing 270 mM trehalose from pH 3.0 to pH 8.0 were prepared and the peptide drug substance was added to each buffer so as to provide a predetermined peptide concentration. The mixture was stirred and allowed to stand at room temperature for 24 hours to evaluate whether the peptide drug substance was dissolved.

[4] = Test Example 3: peptide stability in solution (HPLC); conditions: for % difference vs T = 0 / Conc.: buffers as Table 3; for T0 Conc.: time of preparation, buffers: SEQ1 pH 3.5 50 mM Gly-HCl + 200 mM trehalose, SEQ2 pH 4.0, SEQ3 pH 7.0, SEQ4 pH 6.0 in 10 mM citrate + 270 mM trehalose
Method: Based on the results of Test Example 1 and Test Example 2, the stability of the peptides was examined. First, peptide drug substances (purity 95 w/w % or more, PPL) were dissolved in the buffers shown in Table 3, respectively, to prepare peptide solutions of the peptides of SEQ ID NOs: 1 to 4 at the final concentration of 10 mg/mL. […] In the evaluation, samples were collected at the time of preparation of the peptide solution, after 24 hours, and after 48 hours, and stored at −20° C. The peptide concentration was measured by HPLC after all the samples were collected, and compared with the peptide concentration at the time of preparation (T=0).

[5] = Preparation Example 2: stability of lyophilized peptide cocktail preparation; conditions: T = 1 (1 month at 25° C., humidity 60%)
Method: To produce a lyophilized peptide cocktail preparation and confirm the stability of the preparation, 500 mL of a peptide cocktail preparation was prepared in the same manner as in Example 1, and then the preparation was aseptically filled to a glass vial at 1 mL per vial and lyophilized to provide a lyophilized peptide cocktail preparation. Then, immediately after the preparation (T=0) or after storage at room temperature (25° C., humidity 60%) for 1 month from the preparation (T=1), 1 mL of purified water was added to the lyophilized preparation to dissolve the peptides. Appearance, solubility, peptide stability, and pH were evaluated.

Compound | % difference vs T = 0 ([4]; T = 24 h, 25° C./60% RH) [%] | Conc. ([4]; T = 24 h, 25° C./60% RH) [mg/mL] | % difference vs T = 0 ([4]; T = 24 h, 40° C./75% RH) [%] | Conc. ([4]; T = 24 h, 40° C./75% RH) [mg/mL] | % difference vs T = 0 ([4]; T = 48 h, 25° C./60% RH) [%] | Conc. ([4]; T = 48 h, 25° C./60% RH) [mg/mL] | % difference vs T = 0 ([4]; T = 48 h, 40° C./75% RH) [%] | Conc. ([4]; T = 48 h, 40° C./75% RH) [mg/mL] | T0 Conc. [4] [mg/mL] | HPLC analysis: peptide concentration ([1]; T = 0 hour) | HPLC analysis: peptide concentration ([1]; T = 6 hours, room temperature) [mg/mL] | HPLC analysis: % vs T0 ([1]; room temperature) [%] | change in peptide amount % vs T = 0 (100%) (HPLC analysis) [5] | also measured
CC(C)C[C@H](NC(=O)[C@@H]1CCCN1C(=O)[C@H](C)NC(=O)[C@H](CC(N)=O)NC(=O)[C@H](Cc1ccccc1)NC(=O)[C@H](Cc1ccccc1)NC(=O)[C@H](Cc1c[nH]cn1)NC(=O)[C@H](CC(C)C)NC(=O)[C@@H](NC(=O)[C@@H](N)CC(N)=O)C(C)C)C(=O)O [SEQ ID NO: 1, Asn-Val-Leu-His-Phe-Phe-Asn-Ala-Pro-Leu] (H-NVLHFFNAPL-OH; N-terminus and C-terminus assumed) | – | – | – | – | – | – | – | – | – | – | – | – | – | stability / precipitation in the cocktail preparation ([1]; pH 4.9): stable without precipitation; result (solubility) ([2]; glycine-HCl buffer pH 2.5, glycine 10 mM (0.75 mg/mL), final conc. of peptide 20 mg/mL, mass ratio peptide/glycine 26.67): dissolved; result (solubility) ([2]; glycine-HCl buffer pH 3, glycine 10 mM (0.75 mg/mL), final conc. of peptide 20 mg/mL, mass ratio 26.67): dissolved; result (solubility) ([2]; glycine-HCl buffer pH 3.5, glycine 10 mM (0.75 mg/mL), final conc. of peptide 20 mg/mL, mass ratio 26.67): dissolved; result (solubility) ([2]; glycine-HCl buffer pH 3.5, glycine 50 mM (3.75 mg/mL), final conc. of peptide 10 mg/mL, mass ratio 2.67): dissolved; result (solubility) ([2]; glycine-HCl buffer pH 3.5, glycine 50 mM (3.75 mg/mL), final conc. of peptide 25 mg/mL, mass ratio 6.67): white turbid; result (solubility) ([2]; glycine-HCl buffer pH 3.5, glycine 100 mM (7.5 mg/mL), final conc. of peptide 10 mg/mL, mass ratio 1.33): dissolved; result (solubility) ([2]; glycine-HCl buffer pH 3.5, glycine 100 mM (7.5 mg/mL), final conc. of peptide 25 mg/mL, mass ratio 3.33): white turbid; result (solubility) ([2]; glycine-HCl buffer pH 3.5, glycine 200 mM (15 mg/mL), final conc. of peptide 10 mg/mL, mass ratio 0.67): dissolved; result (solubility) ([2]; glycine-HCl buffer pH 3.5, glycine 300 mM (22.5 mg/mL), final conc. of peptide 10 mg/mL, mass ratio 0.44): dissolved; result (solubility) ([2]; glycine-HCl buffer pH 3.5, glycine 500 mM (37.5 mg/mL), final conc. of peptide 25 mg/mL, mass ratio 0.67): white turbid; solubility (summary of Table 2) ([2]; peptide concentration of 25 mg/mL, even when glycine concentration was 500 mM): could not be dissolved; solubility (summary of Table 1) ([3]; any of the conditions (pH 3.0 to 8.0), final concentration of 20 mg/mL): could not be dissolved
Ala-Ser-Leu-Asp-Ser-Asp-Pro-Trp-Val (ASLDSDPWV) [SEQ ID NO: 2] | 0 | 10.85 | −6 | 10.24 | −5 | 10.37 | −20 | 8.76 | 10.89 | SEQ ID NO: 2: 2.7 mg/mL | 2.8 | 107.0 | SEQ ID NO: 2: 100.4% | degraded ([4]; stored at 75% humidity for 48 hours): 20%; result (whether peptide drug substance was dissolved) ([3]; 10 mM Citrate pH 3.0, 270 mM trehalose, final conc. 66.67 mg/mL): dissolved; result (whether peptide drug substance was dissolved) ([3]; 10 mM Citrate pH 3.5, 270 mM trehalose, final conc. 66.67 mg/mL): dissolved; result (whether peptide drug substance was dissolved) ([3]; 10 mM Citrate pH 4.0, 270 mM trehalose, final conc. 100 mg/mL): dissolved; result (whether peptide drug substance was dissolved) ([3]; 10 mM Citrate pH 5.0, 270 mM trehalose, final conc. 100 mg/mL): dissolved; result (whether peptide drug substance was dissolved) ([3]; 10 mM Citrate pH 6.0, 270 mM trehalose, final conc. 100 mg/mL): dissolved; result (whether peptide drug substance was dissolved) ([3]; 10 mM Phosphate pH 7.0, 270 mM trehalose, final conc. 100 mg/mL): dissolved; result (whether peptide drug substance was dissolved) ([3]; 10 mM Phosphate pH 7.5, 270 mM trehalose, final conc. 100 mg/mL): dissolved; result (whether peptide drug substance was dissolved) ([3]; 10 mM Phosphate pH 8.0, 270 mM trehalose, final conc. 100 mg/mL): dissolved
KLKHYGPGWV [SEQ ID NO: 3] | 2 | 11.42 | 4 | 11.70 | 4 | 11.63 | 4 | 11.74 | 11.23 | SEQ ID NO: 3: 2.5 mg/mL | 2.7 | 107.7 | SEQ ID NO: 3: 104.5% | result (whether peptide drug substance was dissolved) ([3]; 10 mM Citrate pH 3.0, 270 mM trehalose, final conc. 200 mg/mL): dissolved; result (whether peptide drug substance was dissolved) ([3]; 10 mM Citrate pH 3.5, 270 mM trehalose, final conc. 200 mg/mL): dissolved; result (whether peptide drug substance was dissolved) ([3]; 10 mM Citrate pH 4.0, 270 mM trehalose, final conc. 200 mg/mL): dissolved; result (whether peptide drug substance was dissolved) ([3]; 10 mM Citrate pH 5.0, 270 mM trehalose, final conc. 200 mg/mL): dissolved; result (whether peptide drug substance was dissolved) ([3]; 10 mM Citrate pH 6.0, 270 mM trehalose, final conc. 200 mg/mL): dissolved; result (whether peptide drug substance was dissolved) ([3]; 10 mM Phosphate pH 7.0, 270 mM trehalose, final conc. 200 mg/mL): dissolved; result (whether peptide drug substance was dissolved) ([3]; 10 mM Phosphate pH 7.5, 270 mM trehalose, final conc. 200 mg/mL): dissolved; result (whether peptide drug substance was dissolved) ([3]; 10 mM Phosphate pH 8.0, 270 mM trehalose, final conc. 200 mg/mL): dissolved
LLQAEAPRL [SEQ ID NO: 4] | −1 | 10.47 | 1 | 10.68 | −4 | 10.16 | −1 | 10.47 | 10.61 | SEQ ID NO: 4: 2.8 mg/mL | 3.0 | 106.4 | SEQ ID NO: 4: 101.2% | result (whether peptide drug substance was dissolved) ([3]; 10 mM Citrate pH 3.0, 270 mM trehalose, final conc. 20 mg/mL): dissolved; result (whether peptide drug substance was dissolved) ([3]; 10 mM Citrate pH 3.5, 270 mM trehalose, final conc. 20 mg/mL): dissolved; result (whether peptide drug substance was dissolved) ([3]; 10 mM Citrate pH 4.0, 270 mM trehalose, final conc. 28.6 mg/mL): dissolved; result (whether peptide drug substance was dissolved) ([3]; 10 mM Citrate pH 5.0, 270 mM trehalose, final conc. 20 mg/mL): dissolved; result (whether peptide drug substance was dissolved) ([3]; 10 mM Citrate pH 6.0, 270 mM trehalose, final conc. 28.6 mg/mL): dissolved; result (whether peptide drug substance was dissolved) ([3]; 10 mM Phosphate pH 7.0, 270 mM trehalose, final conc. 25 mg/mL): dissolved; result (whether peptide drug substance was dissolved) ([3]; 10 mM Phosphate pH 7.5, 270 mM trehalose, final conc. 25 mg/mL): dissolved; result (whether peptide drug substance was dissolved) ([3]; 10 mM Phosphate pH 8.0, 270 mM trehalose, final conc. 25 mg/mL): dissolved
